pKd: −log10 of the molar value.
Key:
[1] = target: human polyclonal IgG (Gammanorm) (human); assay: SPR; vs reference Zvar1; 0.5 M NaOH cycles
[2] = target: human polyclonal IgG (Gammanorm) (human); assay: SPR; after 96-100 CIP cycles 0.5 M NaOH
[3] = target: human polyclonal IgG (Gammanorm) (human); assay: SPR; after 100 CIP cycles 0.5 M NaOH
[4] = target: human polyclonal IgG (Gammanorm) (human); assay: SPR; vs reference Zvar2; 0.5 M NaOH
[5] = target: human polyclonal IgG (Gammanorm) (human); assay: SPR; vs reference Zvar4; 0.5 M NaOH
[6] = target: IgG1 monoclonal antibody (probe molecule); assay: SPR (Biacore), ligand on CM5 chip, IgG1 mAb as probe
[7] = target: human polyclonal IgG (Gammanorm) (human); assay: SPR; after 200 CIP cycles 0.5 M NaOH
[8] = target: human polyclonal IgG (Gammanorm) (human); assay: SPR; after 300 CIP cycles 0.5 M NaOH
[9] = target: human polyclonal IgG (Gammanorm) (human); assay: SPR; vs reference Zvar4; 1 M NaOH
[10] = target: human polyclonal IgG (Gammanorm) (human); assay: SPR; after 100 CIP cycles 1 M NaOH

Row | capacity relative to reference [1] | capacity after 96-100 cycles [2] [%] | Substance | further results
1 | 1.38 | 66 | Zvar(Q9A,N11E,A29S,Q40V,A42K,N43A,L44I)1 (designed binder) | –
2 | 1.3 | 60 | Zvar(Q9A,N11E,Q40V,A42K,N43A,L44I,D53R)1 (designed binder) | –
3 | 1.32 | 62 | Zvar(Q9A,N11E,A29V,Q40V,A42K,N43A,L44I)1 (designed binder) | –
4 | 1.21 | 57 | Zvar(Q9A,N11E,A29E,Q40V,A42K,N43A,L44I)1 (designed binder) | –
5 | 1.28 | 60 | Zvar(Q9A,N11E,A29Q,Q40V,A42K,N43A,L44I)1 (designed binder) | –
6 | 1.49 | 67 | Zvar(Q9A,N11K,H18K,D37E,A42R,N43A,L44I,K50R)1 (designed binder) | –
7 | 1.26 | 58 | Zvar(Q9A,N11E,A29R,Q40V,A42K,N43A,L44I)1 (designed binder) | –
8 | 1.2 | 55 | Zvar(Q9A,N11E,Q40V,A42K,N43del,L44I)1 (designed binder) | –
9 | 1.3 | 60 | Zvar(Q9A,N11E,A29W,Q40V,A42K,N43A,L44I)1 (designed binder) | –
10 | 1.4 | 66 | Zvar(Q9A,N11E,Q40V,A42K,N43A,L44I)1 (designed binder) | pKd [6]: 8.97; koff [6]: 0.000437 s⁻¹; kon [6]: 410000 M⁻¹ s⁻¹
11 | 1.33 | 61 | Zvar(Q9A,N11E,A29L,Q40V,A42K,N43A,L44I)1 (designed binder) | –
12 | 1.04 | 53 | Zvar(N11E,Q32E,K50R)1 (designed binder) | –
13 | 1.3 | 61 | Zvar(Q9A,N11E,A29N,Q40V,A42K,N43A,L44I)1 (designed binder) | –
14 | 1.4 | 63 | Zvar(Q9A,N11K,H18K,D37E,A42R,N43A,L44I)1 (designed binder) | –
15 | 1.35 | 62 | Zvar(Q9A,N11E,Q40V,A42K,N43A,L44I,D53W)1 (designed binder) | –
16 | 1.28 | 59 | Zvar(Q9A,N11E,Q40V,A42K,N43A,L44I,D53Y)1 (designed binder) | –
17 | 1.28 | 59 | Zvar(Q9A,N11E,Q40del,A42K,N43A,L44I)1 (designed binder) | –

Continued, substance first:

Row | Substance | capacity relative to reference [1] | capacity after 96-100 cycles [2] [%] | further results
18 | Zvar(Q9A,N11E,A29I,Q40V,A42K,N43A,L44I)1 (designed binder) | 1.23 | 58 | –
19 | Zvar(Q9A,N11K,H18K,S33K,D37E,A42R,N43A,L44I,K50R,L51Y)1 (designed binder) | 1.28 | 59 | –
20 | Zvar(Q9A,N11E,Q40V,A42K,N43A,L44I)2 with D2, A3 and K4 in linker deleted (designed binder) | – | – | remaining capacity 100 cycles [3]: 70%; capacity relative to ref. 100 cycles [4]: 1.27
21 | Zvar(Q9A,N11E,Q40V,A42K,N43A,L44I)2 with YEDG inserted in linker between K58 and V1 (designed binder) | – | – | remaining capacity 100 cycles [3]: 72%; capacity relative to ref. 100 cycles [4]: 1.31
22 | Zvar(Q9A,N11E,Q40V,A42K,N43A,L44I)2 with V1, D2 and A3 in linker deleted (designed binder) | – | – | remaining capacity 100 cycles [3]: 75%; capacity relative to ref. 100 cycles [4]: 1.39
23 | Zvar(Q9A,N11E,Q40V,A42K,N43A,L44I)2 with K4, F5, D6, K7 and E8 in linker deleted (designed binder) | – | – | remaining capacity 100 cycles [3]: 70%; capacity relative to ref. 100 cycles [4]: 1.3
24 | Zvar(Q9A,N11E,N28A,Q40V,A42K,N43A,L44I)4 (designed binder) | – | – | remaining capacity 100 cycles [3]: 84%; capacity relative to ref. 100 cycles [5]: 1.24
25 | parental C domain of Staphylococcus Protein A (from UniProt A0A0H3K686 270-327) | – | – | reference capacity after 96-100 cycles [2]: 49%
26 | Zvar(Q9A,N11E,Q40V,A42del,N43A,L44I)1 (designed binder) | 1.24 | 57 | –
27 | Zvar(Q9A,N11E,A29H,Q40V,A42K,N43A,L44I)1 (designed binder) | 1.21 | 57 | –
28 | Zvar(Q9del,N11E,Q40V,A42K,N43A,L44I)1 (designed binder) | 1.3 | 60 | –
29 | Zvar(Q9A,N11E,Q40V,A42K,N43A,L44I,D53F)1 (designed binder) | 1.26 | 58 | –
30 | Zvar(Q9A,N11E,Q40V,A42K,N43A,L44I)2 with A56, P57 and K58 in linker deleted (designed binder) | – | – | remaining capacity 100 cycles [3]: 68%; capacity relative to ref. 100 cycles [4]: 1.26
31 | Zvar(Q9A,N11E,D37E,Q40V,A42K,N43A,L44I)4 (designed binder) | – | – | remaining capacity 100 cycles [3]: 81%; capacity relative to ref. 100 cycles [5]: 1.13
32 | Zvar(N11K,H18K,S33K,D37E,A42R,N43A,L44I,K50R,L51Y)1 (designed binder) | 1.46 | 67 | –
33 | Zvar(Q9A,N11E,A29M,Q40V,A42K,N43A,L44I)1 (designed binder) | 1.32 | 62 | –

Row | Substance | capacity relative to reference [1] | capacity after 96-100 cycles [2] [%] | further results
34 | Zvar(Q9A,N11E,N28A,N43A)4 (designed binder) | – | – | remaining capacity 200 cycles [7]: 62%; remaining capacity 100 cycles [3]: 80%; remaining capacity 300 cycles [8]: 42%; capacity relative to ref. 100 cycles [9]: 2.04; capacity relative to ref. 100 cycles [5]: 1.19; capacity relative to ref. 200 cycles [5]: 1.72; capacity relative to ref. 300 cycles [5]: 2.62; remaining capacity 100 cycles [10]: 55%
35 | Zvar(Q9A,N11E,A29K,Q40V,A42K,N43A,L44I)1 (designed binder) | 1.28 | 59 | –
36 | Zvar(Q9A,N11E,Q40V,A42K,N43A,L44I)2 with K58, V1 and D2 in linker deleted (designed binder) | – | – | remaining capacity 100 cycles [3]: 76%; capacity relative to ref. 100 cycles [4]: 1.38
37 | Zvar(Q9A,N11E,D37E,Q40V,A42R,N43A,L44I)4 (designed binder) | – | – | remaining capacity 100 cycles [3]: 84%; capacity relative to ref. 100 cycles [5]: 1.17
38 | Zvar(Q9A,N11E,A29Y,Q40V,A42K,N43A,L44I)1 (designed binder) | 1.27 | 61 | –
39 | Zvar(Q9A,N11E,Q40V,A42K,N43A,L44I)2 with V1, D2, A3, K4, F5, D6, K7 and E8 in linker deleted (designed binder) | – | – | remaining capacity 100 cycles [3]: 62%; capacity relative to ref. 100 cycles [4]: 1.13
40 | Zvar(Q9A,N11E,A29D,Q40V,A42K,N43A,L44I)1 (designed binder) | 1.19 | 56 | –
41 | Zvar(Q9A,N11E,A29T,Q40V,A42K,N43A,L44I)1 (designed binder) | 1.28 | 60 | –
42 | Zvar(Q9A,N11E,Q40V,A42K,N43E,L44I)4 (designed binder) | – | – | remaining capacity 200 cycles [7]: 65%; remaining capacity 100 cycles [3]: 84%; remaining capacity 300 cycles [8]: 48%; capacity relative to ref. 100 cycles [9]: 2; capacity relative to ref. 100 cycles [5]: 1.25; capacity relative to ref. 200 cycles [5]: 1.81; capacity relative to ref. 300 cycles [5]: 3; remaining capacity 100 cycles [10]: 54%
43 | Zvar(Q9A,N11E,Q40V,A42K,N43A,L44I,D53K)1 (designed binder) | 1.41 | 65 | –
44 | parental B domain of Staphylococcus Protein A (from UniProt A0A0H3K686 212-269) | – | – | reference capacity after 96-100 cycles [2]: 35%
45 | Zvar(Q9A,N11E,A29F,Q40V,A42K,N43A,L44I)1 (designed binder) | 1.35 | 62 | –
46 | Zvar(Q9A,N11E,N43A)4 (designed binder) | – | – | remaining capacity 200 cycles [7]: 62%; remaining capacity 100 cycles [3]: 81%; remaining capacity 300 cycles [8]: 41%; capacity relative to ref. 100 cycles [5]: 1.21; capacity relative to ref. 200 cycles [5]: 1.72; capacity relative to ref. 300 cycles [5]: 2.56
47 | Zvar(Q9A,N11E,N28A,Q40V,A42K,N43A,L44I)1 (designed binder) | 1.35 | 65 | –
48 | Zvar(Q9A,N11E,Q40V,A42K,N43A,L44I)2 with P57, K58, V1, D2 and A3 in linker deleted (designed binder) | – | – | remaining capacity 100 cycles [3]: 74%; capacity relative to ref. 100 cycles [4]: 1.35
49 | Zvar(N11K,H18K,D37E,A42R,N43A,L44I)1 (designed binder) | 1.31 | 59 | –

From patent US20190119318A1
